{"source": "patent US11472855", "about": "“RNA-binding protein” (Panitch Schwarze Belisario & Nadel LLP)", "key": {"[1]": {"tested_on": "hPUF_MT(R5:A_13R)3(R6:U_13R)3 Y13R in the R6 repeats", "experiment": "EMSA", "conditions": "13Y at least 30 times greater"}, "[2]": {"tested_on": "hPUF_MT(R5:G_13R)(R5:G_13Y)2(R6:U_13Y)3 R13Y in the second and third R5 repeats (Homo sapiens)", "experiment": "EMSA", "conditions": "FIG. 61; Arg>Tyr between G and U; 4 C; construct name in text appears misprinted as A/G version"}, "[3]": {"tested_on": "hPUF_MT(R5:A_13R)3(R6:G_13R)3 Y13R in the R6:G repeats", "experiment": "EMSA", "conditions": "13Y at least 30 times greater"}, "[4]": {"tested_on": "hPUF_MT(R5:A_13R)3(R6:C_13R)3 Y13R in the R6:C repeats", "experiment": "EMSA", "conditions": "13Y about 3 times greater"}, "[5]": {"tested_on": "hPUF_MT(R5:C_13R)3(R6:U_13R)3 Y13R in the R6:U repeats", "experiment": "EMSA"}, "[6]": {"tested_on": "hPUF_MT(R5:G_13R)3(R6:U_13R)3 Y13R in the R6:U repeats", "experiment": "EMSA", "conditions": "text inconsistent: number 2 greater but prints Tyr>Arg"}, "[7]": {"molecular_target": "T1, hPUF_MT(R2_N12S,Q16E, R3→R5, R4→R6) (R2 repeat N12S,Q16E)", "T1 chain": "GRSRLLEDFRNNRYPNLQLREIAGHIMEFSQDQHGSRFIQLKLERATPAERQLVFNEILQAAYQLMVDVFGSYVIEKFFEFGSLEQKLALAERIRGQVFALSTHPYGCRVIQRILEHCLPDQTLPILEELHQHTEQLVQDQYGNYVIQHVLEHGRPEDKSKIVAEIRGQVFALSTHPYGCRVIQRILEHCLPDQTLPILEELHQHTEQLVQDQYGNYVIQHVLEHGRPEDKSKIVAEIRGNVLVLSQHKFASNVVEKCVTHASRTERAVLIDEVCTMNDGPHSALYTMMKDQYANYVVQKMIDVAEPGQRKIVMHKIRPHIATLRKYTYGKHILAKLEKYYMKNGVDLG", "experiment": "EMSA; binds G exclusively", "conditions": "label: Alexa680 at 5' and 3'"}, "[8]": {"molecular_target": "T2, hPUF_MT(R2_N12S,Q16R, R3→R5, R4→R6) (R2 repeat N12S,Q16R)", "T2 chain": "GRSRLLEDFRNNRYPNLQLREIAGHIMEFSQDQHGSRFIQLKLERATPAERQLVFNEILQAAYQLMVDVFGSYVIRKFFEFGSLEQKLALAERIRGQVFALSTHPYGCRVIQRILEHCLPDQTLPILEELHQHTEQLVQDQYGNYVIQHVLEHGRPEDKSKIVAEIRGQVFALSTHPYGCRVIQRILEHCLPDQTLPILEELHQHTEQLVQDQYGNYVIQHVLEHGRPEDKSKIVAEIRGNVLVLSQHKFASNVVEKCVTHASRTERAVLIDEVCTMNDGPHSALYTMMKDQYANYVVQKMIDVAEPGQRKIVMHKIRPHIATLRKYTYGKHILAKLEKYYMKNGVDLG", "experiment": "EMSA; binds C exclusively", "conditions": "label: Alexa680 at 5' and 3'"}, "hPUF_MT(R3→R5, R4→R6) [9]": {"molecular_target": "T3, hPUF_MT(R3→R5, R4→R6)", "T3 chain": "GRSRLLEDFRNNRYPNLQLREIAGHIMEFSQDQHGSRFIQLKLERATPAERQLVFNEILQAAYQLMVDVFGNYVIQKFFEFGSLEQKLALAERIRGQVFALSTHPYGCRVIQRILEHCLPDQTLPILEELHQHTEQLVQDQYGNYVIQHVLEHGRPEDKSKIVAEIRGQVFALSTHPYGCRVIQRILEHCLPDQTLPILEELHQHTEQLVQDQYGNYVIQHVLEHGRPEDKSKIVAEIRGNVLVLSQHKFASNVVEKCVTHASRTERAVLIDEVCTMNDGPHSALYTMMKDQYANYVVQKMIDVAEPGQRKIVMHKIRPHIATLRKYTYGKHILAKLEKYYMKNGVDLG", "experiment": "EMSA; binds U exclusively at R8 position", "conditions": "label: Alexa680 at 5' and 3'"}, "[10]": {"molecular_target": "T4, hPUF_MT(R8_N12S,Q16E, R3→R5, R4→R6) (R8 repeat N12S,Q16E)", "T4 chain": "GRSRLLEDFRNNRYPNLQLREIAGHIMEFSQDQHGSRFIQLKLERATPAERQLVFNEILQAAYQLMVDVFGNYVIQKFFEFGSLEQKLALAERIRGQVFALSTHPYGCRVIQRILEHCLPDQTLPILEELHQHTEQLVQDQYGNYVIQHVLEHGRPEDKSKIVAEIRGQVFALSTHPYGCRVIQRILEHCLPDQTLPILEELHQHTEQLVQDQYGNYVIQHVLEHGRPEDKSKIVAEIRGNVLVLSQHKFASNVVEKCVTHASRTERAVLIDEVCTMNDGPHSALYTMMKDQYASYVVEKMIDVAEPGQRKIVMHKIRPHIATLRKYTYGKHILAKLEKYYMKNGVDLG", "experiment": "EMSA; binds G exclusively", "conditions": "label: Alexa680 at 5' and 3'"}, "hPUF_MT(R3→R5, R4→R6) [11]": {"molecular_target": "T3, hPUF_MT(R3→R5, R4→R6)", "experiment": "EMSA; binds G exclusively at R7 position", "conditions": "label: Alexa680 at 5' and 3'"}, "[12]": {"molecular_target": "T5, hPUF_MT(R7_E16R, R3→R5, R4→R6) (R7 repeat E16R)", "T5 chain": "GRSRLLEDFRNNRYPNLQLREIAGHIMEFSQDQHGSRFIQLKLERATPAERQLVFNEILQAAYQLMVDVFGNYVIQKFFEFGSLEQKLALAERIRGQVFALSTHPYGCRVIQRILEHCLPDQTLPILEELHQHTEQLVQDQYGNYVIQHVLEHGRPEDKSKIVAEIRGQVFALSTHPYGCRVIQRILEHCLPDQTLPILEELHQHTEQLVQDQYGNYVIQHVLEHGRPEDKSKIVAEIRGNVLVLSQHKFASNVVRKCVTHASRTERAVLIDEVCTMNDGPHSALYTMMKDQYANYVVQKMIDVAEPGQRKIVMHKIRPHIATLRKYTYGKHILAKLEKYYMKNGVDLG", "experiment": "EMSA; binds C and U", "conditions": "label: Alexa680 at 5' and 3'"}, "[13]": {"molecular_target": "T6, hPUF_MT(R7_S12N,E16Q, R3→R5, R4→R6) (R7 repeat S12N,E16Q)", "T6 chain": "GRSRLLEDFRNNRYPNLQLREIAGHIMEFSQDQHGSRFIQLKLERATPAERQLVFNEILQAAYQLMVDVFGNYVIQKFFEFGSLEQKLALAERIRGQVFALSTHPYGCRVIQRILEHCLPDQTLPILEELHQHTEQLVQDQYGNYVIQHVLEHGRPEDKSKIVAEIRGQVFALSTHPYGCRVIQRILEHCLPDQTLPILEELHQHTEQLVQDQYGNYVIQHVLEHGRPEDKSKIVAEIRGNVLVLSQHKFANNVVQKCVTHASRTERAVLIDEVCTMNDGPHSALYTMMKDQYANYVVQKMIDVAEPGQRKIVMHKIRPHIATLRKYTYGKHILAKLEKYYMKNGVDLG", "experiment": "EMSA; binds U exclusively", "conditions": "label: Alexa680 at 5' and 3'"}, "[14]": {"molecular_target": "T7, hPUF_MT(1-2-5-6-5-6-5-6-5-6-7-8)", "T7 chain": "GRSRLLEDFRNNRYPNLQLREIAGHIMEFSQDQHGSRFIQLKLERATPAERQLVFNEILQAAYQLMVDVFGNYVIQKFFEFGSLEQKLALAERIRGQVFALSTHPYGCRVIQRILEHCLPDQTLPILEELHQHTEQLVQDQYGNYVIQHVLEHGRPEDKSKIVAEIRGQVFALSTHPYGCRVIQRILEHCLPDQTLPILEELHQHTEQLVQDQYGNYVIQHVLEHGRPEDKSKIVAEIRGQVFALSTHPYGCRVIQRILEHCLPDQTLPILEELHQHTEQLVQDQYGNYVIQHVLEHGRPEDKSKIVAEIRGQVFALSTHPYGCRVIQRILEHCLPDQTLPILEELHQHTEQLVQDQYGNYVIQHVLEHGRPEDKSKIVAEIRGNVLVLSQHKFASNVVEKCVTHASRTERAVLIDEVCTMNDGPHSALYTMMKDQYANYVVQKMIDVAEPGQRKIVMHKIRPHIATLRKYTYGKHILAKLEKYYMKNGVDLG", "experiment": "EMSA; greater than MT(R3→R5, R4→R6)", "conditions": "label: Alexa680 at 5' and 3'"}, "[15]": {"molecular_target": "T8, hPUF_MT(R5:G_13R)3(R6:C_13Y)3", "T8 chain": "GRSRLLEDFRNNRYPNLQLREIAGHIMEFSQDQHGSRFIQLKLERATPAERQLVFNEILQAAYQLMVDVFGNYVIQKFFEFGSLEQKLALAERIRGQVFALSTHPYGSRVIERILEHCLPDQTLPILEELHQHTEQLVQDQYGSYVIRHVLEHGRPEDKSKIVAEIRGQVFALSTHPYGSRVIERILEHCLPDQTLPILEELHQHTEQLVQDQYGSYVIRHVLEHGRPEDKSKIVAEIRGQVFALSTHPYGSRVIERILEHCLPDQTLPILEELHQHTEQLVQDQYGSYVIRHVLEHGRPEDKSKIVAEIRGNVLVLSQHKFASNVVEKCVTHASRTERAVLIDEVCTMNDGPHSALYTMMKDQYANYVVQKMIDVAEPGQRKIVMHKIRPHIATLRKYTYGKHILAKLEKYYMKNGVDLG", "experiment": "EMSA", "conditions": "label: Alexa680 at 5' and 3'"}, "[16]": {"molecular_target": "T9, hPUF_MT(R5:C_13R)3(R6:U_13Y)3", "T9 chain": "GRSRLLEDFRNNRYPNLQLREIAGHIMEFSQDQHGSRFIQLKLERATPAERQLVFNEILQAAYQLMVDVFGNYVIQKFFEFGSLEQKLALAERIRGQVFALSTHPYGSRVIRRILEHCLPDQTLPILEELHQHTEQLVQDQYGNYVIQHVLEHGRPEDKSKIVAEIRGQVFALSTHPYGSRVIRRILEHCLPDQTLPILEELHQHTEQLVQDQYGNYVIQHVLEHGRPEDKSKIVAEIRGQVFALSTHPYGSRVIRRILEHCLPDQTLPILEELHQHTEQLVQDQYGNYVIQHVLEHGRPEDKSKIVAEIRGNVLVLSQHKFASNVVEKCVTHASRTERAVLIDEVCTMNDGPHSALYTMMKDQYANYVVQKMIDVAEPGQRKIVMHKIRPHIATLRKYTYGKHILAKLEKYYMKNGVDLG", "experiment": "EMSA", "conditions": "label: Alexa680 at 5' and 3'"}}}
{"molecule": "CCAGAAUUGUAUAUAUAUUCG [OTS-1844]", "values": [{"measurement": "binding signal (fold of 13Y protein)", "setting": "[1]", "result": "< 0.033"}]}
{"molecule": "CCAGAAUUGUGUGUGUAUUCG [OTS-2004 (Example 5-6, GU repeat)]", "values": [{"measurement": "binding signal (fold weaker than (R5:G 13R)3(R6:U 13Y)3)", "setting": "[2]", "result": 30}]}
{"molecule": "CCAGAAUUGGAGAGAUAUUCG [OTS-2008]", "values": [{"measurement": "binding signal (fold of 13Y protein)", "setting": "[3]", "result": "< 0.033"}]}
{"molecule": "CCAGAAUUGCACACAUAUUCG [OTS-2004 (Example 5-4)]", "values": [{"measurement": "binding signal (fold of 13Y protein)", "setting": "[4]", "result": 0.33}]}
{"molecule": "CCAGAAUUGUCUCUCUAUUCG [OTS-2006]", "values": [{"measurement": "binding signal (fold of 13Y protein)", "setting": "[5]", "result": 0.1}]}
{"molecule": "CCAGAAUUGUGUGUGUAUUCG [OTS-2004 (Example 5-6)]", "values": [{"measurement": "binding signal (fold of R6 13Y protein)", "setting": "[6]", "result": 3}]}
{"molecule": "CCAGAAUUGUAUACAUUCG (ssRNA)", "note": "[OTS-2025]", "values": [{"measurement": "binding result", "setting": "[7]", "result": "no binding"}, {"measurement": "binding result", "setting": "[8]", "result": "binds"}]}
{"molecule": "CCAGAAUUGUAUAAAUUCG (ssRNA)", "note": "[OTS-2023]", "values": [{"measurement": "binding result", "setting": "[7]", "result": "no binding"}, {"measurement": "binding result", "setting": "[8]", "result": "no binding"}]}
{"molecule": "CCAGAAUGGUAUAUAUUCG (ssRNA)", "note": "[OTS-2034]", "values": [{"measurement": "binding result", "setting": "hPUF_MT(R3→R5, R4→R6) [9]", "result": "no binding"}, {"measurement": "binding result", "setting": "[10]", "result": "binds"}]}
{"molecule": "CCAGAAUUAUAUAUAUUCG (ssRNA)", "note": "[OTS-1754]", "values": [{"measurement": "binding result", "setting": "hPUF_MT(R3→R5, R4→R6) [11]", "result": "no binding"}]}
{"molecule": "CCAGAAUUCUAUAUAUUCG (ssRNA)", "note": "[OTS-2033]", "values": [{"measurement": "binding result", "setting": "[12]", "result": "binds"}, {"measurement": "binding result", "setting": "hPUF_MT(R3→R5, R4→R6) [11]", "result": "no binding"}, {"measurement": "binding result", "setting": "[13]", "result": "no binding"}]}
{"molecule": "CCAGAAUUGUAUAUAUAUAUUCG (ssRNA)", "note": "[OTS-1924]", "values": [{"measurement": "binding result", "setting": "[14]", "result": "binds"}]}
{"molecule": "CCAGAAUUGCGCGCGUAUUCG (ssRNA)", "note": "[OTS-2007]", "values": [{"measurement": "binding result", "setting": "[15]", "result": "binds"}]}
{"molecule": "CCAGAAUUGUCUCUCUAUUCG (ssRNA)", "note": "[OTS-2006]", "values": [{"measurement": "binding result", "setting": "[16]", "result": "binds"}]}
{"molecule": "CCAGAAUUGUAUAGAUUCG (ssRNA)", "note": "[OTS-2024]", "values": [{"measurement": "binding result", "setting": "[7]", "result": "binds"}, {"measurement": "binding result", "setting": "[8]", "result": "no binding"}]}
